{"source": "paper PMC2605612", "about": "(Experimental cell research, 2008)", "proteins": {"B1": {"name": "Fis/OMP (other, UniProt Q9Y3D6 1-120, looked up)", "chain": "MEAVLNELVSVEDLLKFEKKFQSEKAAGSVSKSTQFEYAWCLVRSKYNDDIRKGIVLLEELLPKGSKEEQRDYVFYLAVGNYRLKEYEKALKYVRGLLQTEPQNNQAKELERLIDKAMKKPIFMVLVPVFALTMVAAWAFMRYRQQL"}, "B2": {"name": "Myc-hFis1[32-152]Δα5 (domain or fragment, human, UniProt Q9Y3D6 32-152, looked up)", "chain": "KSTQFEYAWCLVRSKYNDDIRKGIVLLEELLPKGSKEEQRDYVFYLAVGNYRLKENQAKELERLIDKAMKKDGLVGMAIVGGMALGVAGLAGLIGLAVSKSKS"}, "B3": {"name": "Myc-hFis1[32-152]GGIDGG (domain or fragment, human, UniProt Q9Y3D6 32-152, looked up)", "chain": "KSTQFEYAWCLVRSKYNDDIRKGIVLLEELLPGGIDGGRDYVFYLAVGNYRLKEYEKALKYVRGLLQTEPQNNQAKELERLIDKAMKKDGLVGMAIVGGMALGVAGLAGLIGLAVSKSKS"}, "B4": {"name": "Myc-hFis1[32-152] (domain or fragment, human, UniProt Q9Y3D6 32-152, looked up)", "chain": "KSTQFEYAWCLVRSKYNDDIRKGIVLLEELLPKGSKEEQRDYVFYLAVGNYRLKEYEKALKYVRGLLQTEPQNNQAKELERLIDKAMKKDGLVGMAIVGGMALGVAGLAGLIGLAVSKSKS"}, "B5": {"name": "Myc-hFis1[32-152]-Y87A (domain or fragment, human, UniProt Q9Y3D6 32-152, looked up)", "chain": "B4 chain with Y56A"}, "B6": {"name": "Myc-hFis1[92-152] (domain or fragment, human, UniProt Q9Y3D6 92-152, looked up)", "chain": "KYVRGLLQTEPQNNQAKELERLIDKAMKKDGLVGMAIVGGMALGVAGLAGLIGLAVSKSKS"}}, "key": {"cross-linking [1]": {"molecular_target": "the molecule itself", "experiment": "cross-linking"}, "cross-linking [2]": {"molecular_target": "the molecule itself", "experiment": "cross-linking", "remark": "listed apart in the source"}}, "note": "Positions count from the first letter of the chain named. Numbers in names are those of the source. Read-outs that look alike come from different tables or passages of the source.", "data": [{"protein": "B1", "values": [{"measurement": "stoichiometry N", "setting": "cross-linking [1]", "value": 2}]}, {"protein": "B2", "values": [{"measurement": "fold decrease in dimer formation against Myc-hFis1[32-152]", "setting": "cross-linking [1]", "value": "~8", "unit": "fold"}]}, {"protein": "B3", "values": [{"measurement": "fold decrease in dimer formation against Myc-hFis1[32-152]", "setting": "cross-linking [1]", "value": "~3", "unit": "fold"}]}, {"protein": "B4", "values": [{"measurement": "stoichiometry N", "setting": "cross-linking [2]", "value": 4}, {"measurement": "stoichiometry N", "setting": "cross-linking [1]", "value": 5}]}, {"protein": "B5", "values": [{"measurement": "stoichiometry N", "setting": "cross-linking [1]", "value": 2}]}, {"protein": "B6", "values": [{"measurement": "stoichiometry N", "setting": "cross-linking [1]", "value": 2}]}]}
